We go through 167 variants from the RNAGym collection of RNA variant scans (doi:10.7554/elife.80360).

The chains are these.
B1: HDV Ribozyme (parent)
chain: GGCCGGCAUGGUCCCAGCCUCCUCGCUGGCGCCGGCUGGGCAACAUUCCGAGGGGACCGUCCCCUCGGUAAUGGCGAAUGGGACCCA

This series covers variants of B1. As to the kind of experiment: self-cleavage, relative activity (ratio to wild type); higher = more cleavage; co-transcriptional.
Take C48U G50C: the self-cleavage came to 0.965.

Turning to C48U U79C, the self-cleavage turned out to be 0.45.

On to C48G C85A, for which the self-cleavage came to 0.8.

On to C48G C85G, for which the self-cleavage came out at 0.875.

Take C48U C63A: the self-cleavage stood at 0.791.

On to C48G C64A, for which the self-cleavage was 0.344.

For C48U A71U, the self-cleavage worked out at 0.585.

Turning to C48U A71C, the self-cleavage was 0.789.

As to C48G C84G, the self-cleavage is 0.646.

C48A G73C: the self-cleavage was 0.618.

As for C48A G73U, the self-cleavage stood at 0.422.

In the case of C48U C62G, the self-cleavage turned out to be 0.485.

Turning to C48U C62A, the self-cleavage was 0.847.

On to C48U C62U, for which the self-cleavage came to 1.15.

C48U U69G: the self-cleavage is 0.869.

As to C48A U72G, the self-cleavage worked out at 0.525.

For the variant C48A U72A, the self-cleavage came to 0.456.

On to C48U G54A, for which the self-cleavage is 0.813.

On to C48U G68A, for which the self-cleavage was 0.885.

As to C48G A71C, the self-cleavage was determined as 1.03.

Consider C48U C75G, for which the self-cleavage amounted to 0.0852.

With C48U C75U, the self-cleavage worked out at 0.211.

As to C48U C85G, the self-cleavage stood at 0.941.

Take C48U G53A: the self-cleavage was 0.888.

Regarding C48G A51U, the self-cleavage stood at 1.02.

In the case of C48G A51G, the self-cleavage was 0.997.

Take C48G A51C: the self-cleavage turned out to be 0.88.

Take C48G U65C: the self-cleavage was 0.931.

In the case of C48G U65A, the self-cleavage is 0.511.

Take C48G U65G: the self-cleavage was 0.504.

For the variant C48G A77C, the self-cleavage stood at 0.323.

In the case of C48G A77G, the self-cleavage was 0.755.

Turning to C48A C84G, the self-cleavage came out at 0.727.

With C48G C61U, the self-cleavage was 0.876.

For the variant C48G C61A, the self-cleavage is 0.927.

C48A G67U: the self-cleavage was 1.03.

Consider C48A G67A, for which the self-cleavage amounted to 1.04.

For the variant C48U G73U, the self-cleavage was 0.521.

C48U G73A: the self-cleavage came out at 0.526.

With C49A C57U, the self-cleavage stood at 1.15.

Regarding C48G G67U, the self-cleavage is 0.972.

As for C48G G67C, the self-cleavage was 1.

On to C49A A87U, for which the self-cleavage is 0.857.

For C48A C75U, the self-cleavage was found to be 0.339.

In the case of C49A A83C, the self-cleavage was 0.6.

C49A A51U: the self-cleavage stood at 0.539.

For the variant C48A G76C, the self-cleavage came to 1.05.

With C48A G76A, the self-cleavage turned out to be 0.727.

As for C48G U69A, the self-cleavage turned out to be 0.956.

As to C48G G82A, the self-cleavage is 0.403.

As to C48U C57U, the self-cleavage was found to be 0.969.

For C48U C57G, the self-cleavage turned out to be 0.798.

With C48G C49U, the self-cleavage came to 1.08.

As for C48G C63U, the self-cleavage came out at 1.08.

On to C48G C63A, for which the self-cleavage was 0.435.

For C48U C66G, the self-cleavage was found to be 0.658.

As to C48U C66A, the self-cleavage is 0.923.

Turning to C48U C66U, the self-cleavage stood at 0.947.

Regarding C48A C85A, the self-cleavage amounted to 0.717.

With C48A C85G, the self-cleavage was determined as 0.867.

Consider C48A C85U, for which the self-cleavage came out at 1.16.

Consider C48G A83G, for which the self-cleavage was determined as 0.779.

For the variant C48G A83C, the self-cleavage came to 0.573.

On to C48G A83U, for which the self-cleavage is 0.554.

For the variant C48A G50U, the self-cleavage was 1.17.

On to C48A G50C, for which the self-cleavage turned out to be 1.11.

With C48A G50A, the self-cleavage stood at 0.969.

Consider C48A G74A, for which the self-cleavage was determined as 0.7.

Turning to C48U G67C, the self-cleavage came out at 1.01.

As for C48U G67U, the self-cleavage came to 1.27.

For the variant C49A C58A, the self-cleavage worked out at 0.986.

Regarding C49A C58G, the self-cleavage amounted to 0.988.

With C49A C58U, the self-cleavage was 1.04.

Turning to C48G U60G, the self-cleavage amounted to 1.01.

C48G U60C: the self-cleavage was 0.969.

Consider C48U U60A, for which the self-cleavage worked out at 1.

With C48U U60G, the self-cleavage is 0.776.

Regarding C49A A56U, the self-cleavage was determined as 1.1.

Turning to C49A A56C, the self-cleavage came out at 1.05.

Turning to C48G C75A, the self-cleavage amounted to 0.175.

C48G C75U: the self-cleavage is 0.285.

Take C48A U79A: the self-cleavage is 0.974.

In the case of C48U G81C, the self-cleavage stood at 0.381.

Turning to C48U G81A, the self-cleavage amounted to 0.308.

With C48G G50C, the self-cleavage came out at 0.939.

Regarding C48G G50A, the self-cleavage was 0.798.

As for C48U A77C, the self-cleavage was found to be 0.57.

Turning to C48U A77G, the self-cleavage amounted to 0.612.

For the variant C48U C64G, the self-cleavage is 0.721.

C48G A56G: the self-cleavage was 1.03.

For the variant C48G G73C, the self-cleavage came to 0.403.

Turning to C48G G73A, the self-cleavage stood at 0.623.

Turning to C48G G73U, the self-cleavage stood at 0.506.

Regarding C48G G53U, the self-cleavage turned out to be 0.893.

With C48G G53C, the self-cleavage came out at 0.776.

As for C48G U72G, the self-cleavage worked out at 0.369.

Turning to C48A G80C, the self-cleavage worked out at 0.169.

Take C48G G74U: the self-cleavage turned out to be 0.509.

Regarding C48A C86A, the self-cleavage was 0.831.

Regarding C48A C86U, the self-cleavage is 0.923.

As for C49A C61G, the self-cleavage was determined as 0.816.

Take C48U G82A: the self-cleavage is 0.532.

As for C48U G82U, the self-cleavage is 0.437.

For C48U G80U, the self-cleavage amounted to 0.194.

On to C48U A87C, for which the self-cleavage worked out at 0.989.

Consider C48G G81U, for which the self-cleavage came to 0.424.

In the case of C48U G74U, the self-cleavage is 0.554.

Turning to C48U G52A, the self-cleavage amounted to 0.931.

For the variant C48U U65C, the self-cleavage is 1.07.

For the variant C48U U65G, the self-cleavage came out at 0.748.

Take C48A G52A: the self-cleavage worked out at 0.926.

Regarding C48U C84G, the self-cleavage is 0.712.

As to C48U A78U, the self-cleavage was determined as 0.298.

On to C48G G76A, for which the self-cleavage was determined as 1.12.

Regarding C48G G76U, the self-cleavage was 0.997.

Regarding C48G G76C, the self-cleavage came to 0.867.

Consider C48A G59C, for which the self-cleavage turned out to be 1.15.

Consider C48A G59U, for which the self-cleavage worked out at 1.11.

For C48U U72G, the self-cleavage turned out to be 0.639.

Take C48U G59U: the self-cleavage was found to be 1.06.

Turning to C48G G80A, the self-cleavage turned out to be 0.4.

As for C48G U79G, the self-cleavage was 0.795.

As for C48G U79C, the self-cleavage is 0.345.

In the case of C48A G55C, the self-cleavage stood at 1.06.

Take C48A G55U: the self-cleavage was determined as 0.933.

For C49A A77G, the self-cleavage was 0.458.

With C49A A77C, the self-cleavage was 0.252.

For the variant C49A A77U, the self-cleavage worked out at 0.404.

On to C49A A70U, for which the self-cleavage came to 0.812.

With C48U A70U, the self-cleavage was 1.07.

Turning to C48U A70G, the self-cleavage amounted to 0.997.

For C48U C58U, the self-cleavage turned out to be 0.904.

Take C48G C58A: the self-cleavage came out at 1.14.

Turning to C48G G52U, the self-cleavage was determined as 0.612.

Regarding C48U G55C, the self-cleavage was 0.938.

On to C48U A83G, for which the self-cleavage is 0.671.

As to C48U A83U, the self-cleavage turned out to be 0.475.

C48U A83C: the self-cleavage came to 0.906.

As to C48U A51G, the self-cleavage stood at 0.618.

As for C48U A51C, the self-cleavage is 0.919.

For C48U A51U, the self-cleavage is 1.07.

With C48G G55A, the self-cleavage was 0.888.

As to C48U C61G, the self-cleavage came to 0.855.

On to C48U C61A, for which the self-cleavage stood at 0.87.

In the case of C49A A78C, the self-cleavage amounted to 0.116.

Regarding C48U G76C, the self-cleavage came to 1.16.

For C48G C86U, the self-cleavage was determined as 0.932.

As for C48G G59A, the self-cleavage is 0.92.

As to C48G G59U, the self-cleavage came out at 1.07.

On to C48U A56U, for which the self-cleavage was found to be 0.987.

For C48A G82U, the self-cleavage was 0.496.

C48A G82A: the self-cleavage came to 0.332.

With C48A U65C, the self-cleavage was 0.98.

With C48A U65G, the self-cleavage amounted to 0.954.

C48G C66G: the self-cleavage amounted to 0.906.

C48A G81C: the self-cleavage is 0.193.

For the variant C48A G81U, the self-cleavage was 0.338.

As to C48A G81A, the self-cleavage was found to be 0.448.

On to C48G G54C, for which the self-cleavage was found to be 0.665.

For C48G G54U, the self-cleavage was determined as 0.726.

Turning to C48G G68A, the self-cleavage was 0.723.

With C48G G68U, the self-cleavage turned out to be 0.88.

For C48A G53U, the self-cleavage came out at 0.915.

In the case of C48A G53A, the self-cleavage was found to be 1.05.

C48G A87U: the self-cleavage was found to be 1.09.

As for C49A A71G, the self-cleavage is 0.81.

Turning to C48G A70C, the self-cleavage was determined as 0.6.
